Assay results taken from patent US20230242662A1 (BIOATLA, published 2023).

T1: huCD46-His (human, UniProt P15529 35-343)
T1 construct: extracellular domain; Immobilised by amine coupling on the SPR chip; It may be the same protein as the ELISA antigen; also called Human CD46-His; human CD46; not shown: His tag
T1 sequence (looked up): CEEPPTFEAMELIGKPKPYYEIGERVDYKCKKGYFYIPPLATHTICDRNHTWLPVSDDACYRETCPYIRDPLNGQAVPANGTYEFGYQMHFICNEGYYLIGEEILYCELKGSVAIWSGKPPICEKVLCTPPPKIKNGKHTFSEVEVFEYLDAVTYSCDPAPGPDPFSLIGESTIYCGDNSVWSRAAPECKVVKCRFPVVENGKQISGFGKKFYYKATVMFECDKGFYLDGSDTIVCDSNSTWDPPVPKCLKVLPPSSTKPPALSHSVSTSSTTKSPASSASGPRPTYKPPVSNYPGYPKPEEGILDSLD

T2: cynoCD46-His (cynomolgus, UniProt A0A2K5WCL8 35-328)
T2 construct: extracellular domain; Immobilised by amine coupling on the SPR chip; not shown: His tag
T2 sequence: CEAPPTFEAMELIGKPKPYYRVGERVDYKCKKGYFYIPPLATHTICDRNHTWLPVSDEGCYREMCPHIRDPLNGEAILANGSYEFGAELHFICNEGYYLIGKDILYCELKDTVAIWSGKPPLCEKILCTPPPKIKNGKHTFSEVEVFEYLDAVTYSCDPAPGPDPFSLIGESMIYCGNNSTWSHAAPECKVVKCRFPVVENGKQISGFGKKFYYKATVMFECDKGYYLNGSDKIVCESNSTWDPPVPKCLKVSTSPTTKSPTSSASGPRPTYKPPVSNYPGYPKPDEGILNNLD

T3: recombinant cyno CD46 antigen (cynomolgus, UniProt A0A2K5WCL8 35-328)
T3 construct: extracellular domain; Plate-coated antigen of the ELISA; also called cynomolgus CD46 extracellular domain
T3 sequence: T2 sequence

B1: BA-133-04-04 (antibody, V domains shown)
VH: EVQLVESGGGLVQPGGSLRLSCAASGGSVSSYDISWIRQSPSRGLEWLGVIWTDGGTNYNSAFMSRFTISRDDSKNTAYLQMNSLKTEDTAVYYCERVYDGYPWFAYWGQGTLVTVSS
VL: AIQLTQSPSSLSASVGDRVTITCRASQGISNYLNWYLQKPGQSPQLLIYYTSSLHEGVPDRFSGSGSGTDFTLKISRVEAEDVGVYYCQQYIKLPWTFGQGTKVEIK
notes: the killing assays used the ADC form; also called CPE hit BA133-04-04
B2: BAP133-2-02-12 (antibody, V domains shown)
VH: B1 VH
VL: AIQLTQSPSSLSASVGDRVTITCRALQGISNYLNWYQQKPGKAPKLLIYYTSSLHSGVPSRFSGSGSGTEFTLTISSLQPDDFATYYCQQYIKLPWTFGQGTKVEIK
notes: also called BAP133-02-02-12; CPE hit BAP133-2-02-12

Tests used:
[1] = target: T4, cyno CD46 expressed on 293 cells (cynomolgus); assay: FACS, 293 cells expressing cyno CD46, pH 6.0
T4 construct: whole, on cells; The construct on the cells is not described; also called HEK 293 cells expressing cyno CD46
Protocol: (§1) A similar FACS analysis was also carried out using 293 cells expressing cyno CD46. […] The EC50 values for binding to the 293 cells expressing cyno CD46 by the conditionally active anti-CD46 antibodies are summarized in Table 6.

[2] = target: T4, cyno CD46 expressed on 293 cells; assay: FACS, 293 cells expressing cyno CD46, pH 7.4
Protocol: as §1

huCD46-His [3] = target: T1, huCD46-His; assay: SPR, huCD46-His immobilised, antibody as analyte, pH 6.0
Protocol: (§2) Binding kinetics of anti-CD46 antibodies were measured by surface plasmon resonance on a SPR2/4 instrument (Sierra Sensors, Hamburg, Germany) and flat amine sensor chips. The SPR sensor contained four flow cells (FC1-FC4), each of which can be addressed individually or in groups. huCD46-His was immobilized in FC2, and cynoCD46-His was immobilized in FC4. No protein was immobilized in FC1 and FC3 which were used as control surfaces for FC2 and FC4, respectively.
(§3) All injections were done at a flow rate of 25 μL/min and 25° C. The sensor surface was activated with 1-ethyl-3-(3-dimethylaminopropyl)-carbodiimide (EDC) and N-hydroxysuccinimide (NHS) (200 mM/50 mM) for 480 seconds. Human CD46-His (2 μg/mL in 10 mM NaAc, pH5.0) was injected for 480s and the surface was inactivated by injecting 1M ethanolamine-HCl for 480s. cynoCD46-His was immobilized using the same conditions as described for huCD46-His, except that it was diluted into 10 mM NaAc buffer pH4.5. The control surface was activated and deactivated using the same conditions, but without injecting protein. PBST buffer (PBS pH7.4 with 0.05% TWEEN20™) was used as running buffer for the surface preparation. The running solution was switched to PBST with 30 mM sodium bicarbonate with the pH adjusted as indicated in the figures before the analyte injections. The instrument was equilibrated with the running solution for one hour before the first analyte injection.
(§4) The off-rate was measured for 360 s. The chip surface was regenerated after each cycle of interaction by injecting 6 μL of 10 mM glycine (pH 2.0). Flow cells 1 and 3 without immobilized protein were used as control surfaces for reference subtraction.

huCD46-His [4] = target: T1, huCD46-His; assay: SPR, huCD46-His immobilised, antibody as analyte, pH 6.5
Protocol: as §2, §3, §4

huCD46-His [5] = target: T1, huCD46-His; assay: SPR, huCD46-His immobilised, antibody as analyte, pH 7.4
Protocol: as §2, §3, §4

cynoCD46-His [6] = target: T2, cynoCD46-His; assay: SPR, cynoCD46-His immobilised, antibody as analyte, pH 6.0
Protocol: as §2, §3, §4

cynoCD46-His [7] = target: T2, cynoCD46-His; assay: SPR, cynoCD46-His immobilised, antibody as analyte, pH 6.5
Protocol: as §2, §3, §4

cynoCD46-His [8] = target: T2, cynoCD46-His; assay: SPR, cynoCD46-His immobilised, antibody as analyte, pH 7.4
Protocol: as §2, §3, §4

[9] = target: T3, recombinant cyno CD46 antigen; assay: ELISA, coated cyno CD46; EC50 at pH 7.4 over EC50 at pH 6.0
Protocol: The binding activities of conditionally active anti-CD46 antibodies to cyno CD46 were measured by ELISA and are shown in FIGS. 3-4. The EC50 values for binding to the cyno CD46 at pH 6.0 and pH 7.4 for the conditionally active anti-CD46 antibodies are summarized in Table 2.
[…] Cover with sealing film and place the plate onto a plate shaker set to 50 rpm for 60 minutes at room temperature. [0351] 6) Decant plates and tap out residual liquid on a stack of paper towels. [0352] 7) Serially dilute test articles in 3-fold dilutions starting at 3000 ng/mL in pH 6.0 or pH 7.4 ELISA incubation buffer. [0353] 8) Add 100 μL/well of diluted test articles to the plates [0354] 9) Cover with sealing film and place the plates onto a plate shaker set to 50 rpm for 60 minutes at room temperature. […] 10) Decant plates and tap out residual liquid on a stack of paper towels. [0356] 11) Wash wells three times by dispensing 200 μL of pH 6.0 or pH 7.4 ELISA wash buffer to the wells and completely aspirate the contents. [0357] 12) Dilute the HRP secondary antibody at 1:2500 in pH 6.0 or pH 7.4 ELISA incubation buffer. [0358] 13) Add 100 μL HRP secondary antibody diluted in pH 6.0 or pH 7.4 ELISA incubation buffer to each well [0359] 14) Cover with sealing film and place the plates onto a plate shaker set to 50 rpm for 60 minutes at room temperature. [0360] 15) Decant plates and tap out residual liquid on a stack of paper towels. [0361] 16) Wash wells three times by dispensing 200 μL of pH 6.0 or pH 7.4 ELISA wash buffer to the wells and completely aspirate the contents. [0362] 17) Dispense 50 μL per well of the TMB substrate solution into all wells of the plates. Incubate at room temperature for about 2 minutes 15 seconds or 2 minutes. […] 18) Add 50 μL per well of 1N HCl into all wells of the plates. Read plates at 450 nm using PerkinElmer, EnSpire 2300 Multilabel Reader.

[10] = target: T4, cyno CD46 expressed on 293 cells; assay: FACS, 293 cells expressing cyno CD46; EC50 at pH 7.4 over EC50 at pH 6.0
Protocol: as §1

Row | Binder | EC50 [1] [µg/mL] | EC50 [2] [µg/mL] | Kd (huCD46-His [3]) [nM] | koff (huCD46-His [3]) [s⁻¹] | kon (huCD46-His [3]) [M⁻¹ s⁻¹] | Kd (huCD46-His [4]) [nM] | koff (huCD46-His [4]) [s⁻¹] | kon (huCD46-His [4]) [M⁻¹ s⁻¹] | Kd (huCD46-His [5]) [nM] | koff (huCD46-His [5]) [s⁻¹] | kon (huCD46-His [5]) [M⁻¹ s⁻¹] | Kd (cynoCD46-His [6]) [nM] | koff (cynoCD46-His [6]) [s⁻¹] | kon (cynoCD46-His [6]) [M⁻¹ s⁻¹] | Kd (cynoCD46-His [7]) [nM] | koff (cynoCD46-His [7]) [s⁻¹] | kon (cynoCD46-His [7]) [M⁻¹ s⁻¹] | Kd (cynoCD46-His [8]) [nM] | koff (cynoCD46-His [8]) [s⁻¹] | kon (cynoCD46-His [8]) [M⁻¹ s⁻¹] | also measured
1 | B1 | 0.0947 | 0.944 | 2.51 | 0.00207 | 824000 | 1.91 | 0.00176 | 922000 | 4.93 | 0.00241 | 490000 | 1.02 | 0.00146 | 1.42e+06 | 1.09 | 0.00145 | 1.33e+06 | 2.28 | 0.00154 | 673000 | ratio (ph 7.4/pH 6.0) [9]: 13; Ratio (pH 7.4/6.0) [10]: 10
2 | B2 | 0.198 | 2.92 | 7.51 | 0.00404 | 539000 | 5.78 | 0.00282 | 488000 | 8.79 | 0.00225 | 256000 | 1.45 | 0.00184 | 1.27e+06 | 1.47 | 0.0017 | 1.16e+06 | 3.88 | 0.00192 | 495000 | ratio (ph 7.4/pH 6.0) [9]: 13.3; Ratio (pH 7.4/6.0) [10]: 14.8
